The DeepSol protein solubility set

assay: soluble on expression in E. coli; label from the status in PepcDB or PDB records

Sequence	soluble on expression in E. coli
MHELFHPIFANGEEKAALQQLIIALDASGKRYFLRNEILHTFSQYCQQAQKPTYFYYSSSVGKLIQYTHEIVLAEDGTWFVVRPRIASQEVWRLTSDLAKFDSMSIDAFLDVSDRLVNAYEPNILEIDLNSFYEASPSISDPRNIGQGLAFLNRYLCSQIATDPQYWVELVYLALRGLQYDGINLMIGDAIPSGIHLAKQIHAAIKFLSALPPEEPYEKFYIELQKLGFEPGWGNTAQRILETITLLDKLIDSPQPAVLEAFVARVPAVFRVVLVSIHGWVAQEDVMGRDETLGQVIYVLEQARSLENKLQQEIKLAGLEVLGIQPHVIILTRLIPNCEGTYCNLRLEKLHNTENAWILRVPFGEFNPEITNNWISKFEIWPYLETFALDAEKQLLAQFQGKPNLIIGNYSDGNLVAFLLARRLKVTHCNIAHSLEKPKNLFSNLYWQDSEEKYHFSVQFTADLITMNAADFIITSSYQEIFGTPESIGQYESYKFFTMPHLYHVVDGIDLFNPKFNMVPPGVNEQVFFPYSQTADRDPNVSKHVHDLLEHHHHHH	not soluble
MLDQVCQLARNAGDAIMQVYDGAKPMDVVSKADNSPVTAADIAAHTVIMDGLRTLTPDIPVLSEEDPPGWEVRQHWQRYWLVDPLDGTKEFIKRNGEFTVNIALIDHGKPILGVVYAPVMNVMYSAAEGKAWKEECGVRKQIQVRDARPPLVVISRSHADAELKEYLQQLGEHQTTSIGSSLKFCLVAEGQAQLYPRFGPTNIWDTAAGHAVAAAAGAHVHDWQGKPLDYTPRESFLNPGFRVSIY	not soluble
MGSDKIHHHHHHMTKESILTFSQSKAEPAWLQEKRLAAFDKIDDLELPRIERVKFQRWNLGDGTITESPISANVPDFTSFGENPKLVQLGTQTVLESLPAKLVEQGVVFTDFHSALEEIPQVIEKYFATALKFDEDKLSAYHTAYFNSGSVLYVPDNVEIDLPLEGIFLQDSTSNVPLNKHVLIIAGRHAKVNYLERFETIGDSDVKATANIAVEVLAQAGSQVKFAAIDRLGNNITTYISRRGRLDNDASIDWALGVMNEGNVIADFDSDLIGNGSHAELKVVAASSGRQIQGIDTRVTNYGNNSIGHILQHGVILERGTLTFNGIGHIIKGAKGADAQQESRVLMLSDKARSDANPILLIDENEVTAGHAASIGQVDPEDMYYLMSRGIDKETAERLVIRGFLGTVITEIPVKAVRDEMIAVLDEKLDKR	not soluble
MWIGMRDKWKGVGKVTQQEIIESLLQFINQETSTEEEFNEHALMLFAYQYENNLPYRTYCMQKGKTARTVKTWRDIPAVPINAFKELTLSCVSPEQAERVFMTSGTTRGVRGKHYHPTLSVYDHSMIVNFRKRFMKERDKIKMGILFPTEEHMPNSSLAHYLALAVNVFGTEDSHYLVDRDGLNMDRLLAELEQAEQSGEPYALLGASFSFVHVFEELAKRGKTFRLPEGSRILDTGGFKNQSREMDLDEFYDTLSAYLGVPRRECINMYGMTELSTQFYDDGNETVPSVKSGPHWIRTRVIHPLTGEEMPKGKRGVLVHCDLGNFNSVTTILTEDMGVETDGGFLLLGRVQGAEAKGCSMAVEEFIRAAKGTSELEHHHHHH	not soluble
MTFGEKLLNAASTRGRLCVGIDPHESLLTSWGLPVNVDGLAEFSRACVEAFADTVALVKPQVAFYERFGSAGFAILEETIQTLRERGCLVVSDAKRGDIGSTMAGYASAWLDPASPLSSDAVTVSPYLGFHSLDPVFELAEQHGRGVFVLAATSNPEARELQDQQNADGVSISQQIVDQAAALNAPYMAQGKAGNIGVVIGATLSKPPRLSTLGGAILMPGVGAQGGTASDVDEIAGDMAHLAFPNVSRSILATGPDIAEMKNSVAKNAADFPGFPRS	soluble
MALALSLSACSPPLRRTRRAGFRTSCSIFANPAQRAKRKLLELISEEDRGLRTQKDPKKRDEIVNAIESMTVIGRSSITTDDSLSATWRLLWTTEKEQLFIIEKAGLFGTTAGDVLQVIDVNKRILNNVITFPPDGVFFVRSDIDIASPQRVNFRFNSAVLRGKNWELPLPPFGKGWFENVYMDGEIRVAKDIRGDYLIVDRAPYNWTESFV	soluble
MKAEIISVGTEILLGDIVNTNSQFLAKELASLGIEVYHQSTVGDNKQRLLECFDESLKRSDFVITTGGLGPTGDDMTKETAAEYFGQKLELHKPSLEVLESFFVKTGKKMAENNMKQVYFPKDAIVLKNNNGTAPGAILKKDGKFIIVLPGPPREMKAMFNESVKPYLQQFTNEMLVSKTLRLYGIGESNLELEILDIINEQTNPTVALYAKELEVTIRITAKAENEREAFKLIKPVEEKIKSRVGKYVYTEGDISISEGETALEDAVSKLLVEKNLTIAVAESCTGGLVSSSLINYPGISSVFLEGCVTYSNDSKMKRLGVKRETLEEFGAVSEQTAIEMAEGVAKGLKANIGISTTGVAGPGGGTKEKPVGLVYTAIYINGKTIVKKNIFNGDRRKIRLRATRDLLNELRIQLEKL	not soluble
NNLLYKRWVKQRAADVDKWSDGRLGYVHIQSMGDDSFRSVYSDILGKYNNREGIVIDTRFNGGGRLHEDIEVLFSGKKYFTQVVRGREACDMPSRRWNKPSIMLTCEANYSNAHGTPWVYSHQKLGKLVGMPVPGTMTSVSWERLQDPSLVFGIPVIGYRLPDGSYLENTQLEPDIKVANSPETIVKGEDTQLKTAVEELLKELPAGKGKKH	not soluble
TATNHQGLPAVDSEILEMPPEKADGVVEGIDVNGPKAQLMLRYPDGKREQITLPEQAKLLALVKHVQSKGYPNERFELLTNFPRRKLSHLDYDITLQEAGLCPQETVFVQE	soluble
MQDTTLLQMITDDMVSARQLLELLQAESLILHGRDMSEMEQVLAQKQALVILLDQHGRKRSQVLAGMGLPANRSGLQQLASQSEVGEQLLTSSDELNALINECQTLNDQNGSLIQLQQISTAHQLRILNGGETPTLYDARGSTALRAKPRPLSQA	not soluble
MAGGGNFIARVISYVANEFIVNGLANSHAFQRFAVRTSKRIENLSKMAAENREKVAQQMEEFAKNIDVIHEETLIILVWNLKTSVNHMGQLK	not soluble
AIARTDSSKMTDVESGVANFASSARAGRRNALPDIQSSAATDGTSDLPLKLEALSVKEDAKEKDEKTTQDQLEKPQNEEK	soluble
MGSDKIHHHHHHMKNKAESLASSSASILTLGLGWFPKNPGGLERYMYELTHKLAANKDQIELCGVGLPEAERNSPIKLTNLASPDSAIWQRLWSIRTNFQKTRTNKPDAINLHFALYSFPLLDILPKGVPVTFNFHGPWASESQQEVVNKNLSLLIKHHLIEKNTYNHCDRFIVLSKAFGKILHDKYQVPWSKINIIPGGVDINWFQPNLSRQDACKQLGWPNNRRIIFTSRRLVHRTGVDKLLKALAIIKPRIPDVWLAIAGRGHIQAALQQQATELGLDDNVKFLGFLPDEQLPIAYQAAELTIMPSQSFEGFGLVIVESLACGTPVLCTPVGGMPEILSEFSPDLITTSTEASAIAEKLEQVLLGNIPIPSREACRHYAVTHYDWNQIAQQVRNVLLN	not soluble
MSLKDILVIGATGKQGNAVVKQLLEDGWYVSALTRNKNNRKLSDIGHPHLSIVEGDLSDNVSLQSAMKGKYGLYSIQPIVKDDVSEELRQGMKIIEIAEQENIQHIVYSTAGGVNRNRTGPHFEVLAKIENRLMESNINATVIKPSFFMDNFLRIAKVEDERITLPEFINPNIKFTMISSIDIAKIASYIFAHPQSFTHQSIEIGSDEVTLSEAATIFSEVTGKSTVIEGEFVSGVAEKQWLEEKGYEVDFELMAEINPTRLSLSDWLKVQNYNEGHHHHHH	soluble
MYDVAIIGAGVIGCSIFRELTKYDLRVVVLEKEKDVSMGTSKANSAIVHAGYDPEEGTLMAKYNVKGNEMFEELCKELSVPFKRNGSLVLAFDKEDMFKVKHLYENGSKLGVKGLKILNRDEVLKMEPNLNDKIEGALYAPTGGIVGPFEYTIALAENGVTNGGKIKLKKEVVSIKKRDVFKIGTEDGETIEAKFVINAAGVYADKIHNLVCKESFKISPRSGEYFVMDKSQGNVVKHTIFQCPSKLGKGVLITPTVHGNLLVGPDARDVEDKEDVGTVFEGLDYVKEASMRSTKEVNFRESIRNFAGLRANPDTGDFIVEENDEVKGFIDVAGMKSPGLSSAPAIAVDVVNILSSAGCSLKK	not soluble
VGSFYGQYLSIRKTEALLRNELNALTPATVMELADKLPEKSSSLVISYIRQVLQAHESPAQIQRLLANFEIAADKDLAISKTLTKLGP	not soluble
MSLAYGSLLFKRFSITIKYRKLIVEHIEKGDLKLTEEFKNILRDLMVTTFKKADSILIEKCKAEEKHYSSCTGVVLLFIKDILVNAHIGDSRSVACTYSNSINLAQFLTIDHKPDQPLEYRRIVENGGSVEYLQNHNNKPFLRGGDFTRRRARGETPMQLQYSRAFGGKDLKPYGLSCVPDISIISLNQNNRLFIIATDGIWDLLSAQQSCDLSFYSQELGIQPARYLVNAVLEETRNRNTNCDNLTAICIMHIKNEGHHHHHH	soluble
MSLSRYPQLIQEQILKCKESWDSNSYKTSLRSFVYNKVNETDAILYTKPTNVSQEEWDKAIENKPSSDLIPIQVFGFEGLNNRNQIQVENVAQARVILNQILDKTKQLQQSHSFETSARIMKVQARNAQIEKRILKLGTQLAILKNRRLPLTISEEKMWGQFQELLKSSNDPAGLGKTNELWARLAVLRERAKTISEQLDSKLVIIGENGGQTGKPSASGDNNRVSDEVYDRIDKIAEILKNQQSGIAYLNDVLEKDNKALDSVVELKEGHHHHHH	soluble
MENSIRYISEHPTDFNGLLSLYESLGWNSLKLTVNELERMCKQSWYAIYVFDDKRLVGMGRVISDGVITGIICGVGVLPKYQSSGIGKEIVKRLIQHCEQNKVIPQLMCVEKLQSYYESIGFEAFSIGMTKHIIR	not soluble
MAHHHHHHMFRSASCILLAAKTIPINPQKPFKLHTAGRDDVPPVPTTATYDTEQMKKCLEMMFRIRRMESLCDQSYKLKKIRGFCHLYIGQEAIPVGMENVLTLEDLIVTAYRDHAWYIVRGGTPGEVFAEMFGKEGGCSKGKGGSMHMYSVKNNFFGGNGIVGAQVPIGAGLGWRFALENRDKPRNVAVTFYGDGAANQGQVFEAMNIAAIHRIPVIFCCENNQFGMGTSKERAAYQPEMYRRGDYIPGLQVDGMDVLAVQEGTRWAKEWCLSGKGPIVLEFDSYRYVGHSMSDPDSQYRKKSDIQDVRKTRDCIHKMKDFMLEEGIMTDEEMKKLEKDVKKEVDQQLQPAEKQKPTPRSELFTDIYVGEQYEHRTTQGTVYAKP	not soluble
MKSLRFQSVFDIIGPVMIGPSSSHTAGAVRIGKIVSSIFDDTPTEVEFQLFNSFAKTYRGHGTDLALVAGILGMDTDDPEIPNSLEIAHKRGIKIVWTIQKDSNAPHPNTTKITVKNAHKTISVTGISIGGGNIQVTELNGF	not soluble
MSLKIHTLRLILGDQLNARHSWFREKDAGVLYVMMELKQETDYVVHHRQKVLAFFAAMRAFGNALNTSGHQVNYIKLDDDTNEQSLTQNLQQLMKKYEVTTLECQQPDEYRLDHQLKSWAGANNIHLSWFDTEHFLTGRNSLKEYFPNSENYLMETFYRRVRKQYDILMDGGRPTGGRWNYDKENQKKVPASHDVELPLIFSNDVSDIDELLRSSEIKTMGQANAAQLIWEGHHHHHH	not soluble
MAREAKKDPNELTVEQKLKTLFQLQTMLSKIDEIKTLRGELPLEVQDLEDEIAGLSTRIDKIKAEVDELKSAIAGKRVEIETAKASVEKYKSQQDNVRNNREYDFLTKEIEFQSLEIELCEKRIKEFSADREEKEAEVVKNEQILSERQKDLEQKKGELDEIISETKQEEEKLRDKAKDLETKIEPRLLQSFKRIRKNSRNGLGVVYVQRDACGGCFNKIPPQRQLDIRSRKKVIVCEYCGRIMIDPELAGVQIEHKVEEAPATTTKRAIRRKTAE	not soluble
